Numbering of substitutions follows the chain as printed. One block for each binder: values may come before it.
How the values were obtained:
human CD40 [1] = target: T1, human CD40 (human, UniProt P25942); test: cell-based or functional assay
human CD40 [2] = target: T1, human CD40; test: cell-based or functional assay; remark: listed apart in the source

T1 sequence (P25942 21-277): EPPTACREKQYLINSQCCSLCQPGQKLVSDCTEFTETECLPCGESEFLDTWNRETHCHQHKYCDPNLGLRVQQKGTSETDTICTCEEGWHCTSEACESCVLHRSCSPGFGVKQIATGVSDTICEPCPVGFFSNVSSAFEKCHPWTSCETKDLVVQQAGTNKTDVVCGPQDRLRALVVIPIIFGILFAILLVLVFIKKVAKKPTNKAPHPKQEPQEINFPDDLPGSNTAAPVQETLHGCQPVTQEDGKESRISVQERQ

Antagonist: Jurkat/ Reporter assay IC50 nM; blocks m8 with m7 (human CD40 [1]): 3.1 nM
EC50 of antagonist activity in the CD40-dependent NF-kB SEAP reporter assay (HEK-293 transfected with human CD40, stimulated with recombinant CD40L); blocks m8 with m7 (human CD40 [2]): 3.7 nM
EC50 of inhibition of CD86 upregulation on primary human B cells stimulated with CD40L-expressing Jurkat cells; blocks m8 with m7 (human CD40 [2]): 0.6 nM
B1: ABBV-323 (ravagalimab), human IgG1/κ anti-CD40 antagonist mAb (antibody, V domains shown)
VH: EVQLVESGGGLVKPGGSLRLSCAASGFTFSDYGMNWVRQAPGKGLEWIAYISSGRGNIYYADTVKGRFTISRDNAKNSLYLQMNSLRAEDTAVYYCARSWGYFDVWGQGTTVTVSS
VL: DIVMTQSPDSLAVSLGERATINCKSSQSLLNRGNQKNYLTWFQQKPGQPPKLLIYWASTRESGVPDRFSGSGSGTDFTLTISSLQAEDVAVYYCQNDYTYPLTFGQGTKLEIK

Agonist: huCD40 reporter assay IC50 (human CD40 [1]): 157 nM
B2: FAB516, anti-CD40 agonist antibody variant of ABBV-323 (antibody, V domains shown)
VH: B1 VH with I48V, A49S, G56S
VL: B1 VL with R32L

From publication PMC6683420 (BMC Molecular and Cell Biology, 2019)
